Laboratory results: patent publication US20220403048A1, “BINDING MOLECULES TO ARGINASE II [ARG2]” (Cancer Research Technology Limited, priority 2019, published 2022)

Legend:
[1] = target: T1, recombinant human trimeric ARG1 enzyme (Homo sapiens, UniProt P05089); assay: Direct binding HTRF assay, human trimeric ARG1; settings: purified scFv, FIG. 1B
T1 construct: Avi tag (N); His10 (after a GGG linker) (C); made in house; host or cells: E. coli BL21 (DE3)
T1 sequence (P05089 with tags, fused parts or gaps): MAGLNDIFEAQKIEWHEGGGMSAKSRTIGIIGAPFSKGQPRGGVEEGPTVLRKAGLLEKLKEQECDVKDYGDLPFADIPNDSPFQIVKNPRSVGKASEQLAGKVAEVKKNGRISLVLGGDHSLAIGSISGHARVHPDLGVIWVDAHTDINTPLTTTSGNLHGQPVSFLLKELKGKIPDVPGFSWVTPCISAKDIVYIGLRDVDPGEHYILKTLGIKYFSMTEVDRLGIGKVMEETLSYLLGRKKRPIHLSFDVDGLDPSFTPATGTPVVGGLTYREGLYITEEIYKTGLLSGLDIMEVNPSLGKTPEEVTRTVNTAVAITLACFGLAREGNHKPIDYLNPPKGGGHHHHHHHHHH

[2] = target: T2, THP-1 lysate derived human trimeric ARG2 (Homo sapiens, UniProt P78540); assay: ELISA binding to THP-1 lysate derived human ARG2; settings: biotinylated recombinant human IgG1, FIG. 6
T2 construct: expressed in transfected cells; host or cells: THP-1 cells overexpressing human ARG2 (cell lysate)
T2 sequence (P78540 23-354): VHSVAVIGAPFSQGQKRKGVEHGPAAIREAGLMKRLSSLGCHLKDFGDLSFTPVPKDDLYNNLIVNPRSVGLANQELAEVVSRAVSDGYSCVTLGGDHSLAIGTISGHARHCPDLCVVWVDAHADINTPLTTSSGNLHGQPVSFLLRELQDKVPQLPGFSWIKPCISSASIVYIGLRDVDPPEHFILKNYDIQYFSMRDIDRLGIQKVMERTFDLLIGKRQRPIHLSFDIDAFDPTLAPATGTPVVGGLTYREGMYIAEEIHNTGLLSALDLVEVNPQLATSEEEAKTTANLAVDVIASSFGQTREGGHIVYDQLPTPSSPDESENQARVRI
Experimental: C0020187 and C0020065 IgGs were tested for their ability to bind to mammalian expressed human ARG2 produced in transfected THP-1 cells. Lysates of human ARG2 transfected THP-1 cells were prepared and binding to these lysates measured using an ELISA.
Cell lysates were prepared from THP-1 cells overexpressing human ARG2 and from wild type THP-1 cells. Between 600,000-1,000,000 cells were suspended in 1 ml tris-buffered saline (25 mM tris+150 mM sodium chloride in dH2O, pH 7.4) and cell lysates prepared using QIAshredders (QIAgen, UK; cat: 79654).
For the ELISA, maxisorp white plates (Nunc; cat: 437796) were coated overnight at 4° C. with rabbit anti-human ARG2 antibody (Abcam, ab137069) at 1 μg/ml in PBS. The next day, the plate was washed with PBS and blocked with casein blocker (Thermo Scientific, 37528). […]
The blocked ELISA plate was washed with PBS and 50 μl of the pre-incubation mixtures were transferred to the ELISA plate and incubated for 90 minutes at room temperature. […] Next, 100 μl PICO ELISA substrate (Thermo Scientific, 37070) was added to each well, the plate was incubated for 1 minute at room temperature in the dark before being read for luminescence using the Envision plate reader. Data were analysed using GraphPad Prism. […]

B1: C0020065: anti-ARG2 antibody, alternate lead isolation clone, VH SEQ ID NO: 2, VL SEQ ID NO: 7 (antibody, listed as Homo sapiens, V domains shown)
VH: GVNLRESGGGVVQPGRSLRLSCAASGFTFSSYAMHWVRQAPGKGLEWVAVISYDGSNKYYVDSVKGRFTISRDNSKNTLYLQMNSLRAEDTAVYYCARDSSQLWFDYWGRGTLVTVSS
VL: QSVVTQPPSVSGAPGQRVTISCTGSSSNIGTGYDVHWYQQLPGTAPKLLIYGNSNRPSGVPDRFSGSKSGTSASLAITGLQAEDEADYYCQSYDSSLSGSVVFGGGTQLTVL
modifications: C0020065
binding to biotinylated recombinant human trimeric ARG1 enzyme [1]: no binding | binding to THP-1 lysate derived human trimeric ARG2 [2]: strong binding
